Reference: PMC4632003, “Mitofilin and CHCHD6 physically interact with Sam50 to sustain cristae structure” (Scientific Reports, 2015)

T1: GST-tagged Sam50 (Homo sapiens (Human), UniProt Q9Y512)
T1 chain: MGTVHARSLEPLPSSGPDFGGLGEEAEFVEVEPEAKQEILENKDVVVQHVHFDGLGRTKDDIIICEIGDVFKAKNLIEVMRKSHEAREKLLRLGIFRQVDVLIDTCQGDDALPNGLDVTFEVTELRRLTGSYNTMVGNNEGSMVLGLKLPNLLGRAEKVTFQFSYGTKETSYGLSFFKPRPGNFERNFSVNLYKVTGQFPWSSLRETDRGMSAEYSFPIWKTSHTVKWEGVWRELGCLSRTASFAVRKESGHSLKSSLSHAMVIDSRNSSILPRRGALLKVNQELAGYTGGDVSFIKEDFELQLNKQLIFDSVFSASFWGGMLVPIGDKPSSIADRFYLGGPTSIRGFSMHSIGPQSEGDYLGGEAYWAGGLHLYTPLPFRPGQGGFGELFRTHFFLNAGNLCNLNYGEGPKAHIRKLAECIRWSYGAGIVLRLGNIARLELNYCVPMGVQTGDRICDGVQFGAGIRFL

T2: His-tagged Mitofilin 123-758 (human, UniProt Q16891 123-758)
T2 construct: Mitofilin, human, residues 123-758, cloned into pET-28a; The methods of the pull-down name 'GST-Mitofilin' where results, legend and plasmids say His-tagged Mitofilin 123-758; its purification is not described; also called His-Mitofilin^123–758; source: E. coli
T2 sequence (looked up): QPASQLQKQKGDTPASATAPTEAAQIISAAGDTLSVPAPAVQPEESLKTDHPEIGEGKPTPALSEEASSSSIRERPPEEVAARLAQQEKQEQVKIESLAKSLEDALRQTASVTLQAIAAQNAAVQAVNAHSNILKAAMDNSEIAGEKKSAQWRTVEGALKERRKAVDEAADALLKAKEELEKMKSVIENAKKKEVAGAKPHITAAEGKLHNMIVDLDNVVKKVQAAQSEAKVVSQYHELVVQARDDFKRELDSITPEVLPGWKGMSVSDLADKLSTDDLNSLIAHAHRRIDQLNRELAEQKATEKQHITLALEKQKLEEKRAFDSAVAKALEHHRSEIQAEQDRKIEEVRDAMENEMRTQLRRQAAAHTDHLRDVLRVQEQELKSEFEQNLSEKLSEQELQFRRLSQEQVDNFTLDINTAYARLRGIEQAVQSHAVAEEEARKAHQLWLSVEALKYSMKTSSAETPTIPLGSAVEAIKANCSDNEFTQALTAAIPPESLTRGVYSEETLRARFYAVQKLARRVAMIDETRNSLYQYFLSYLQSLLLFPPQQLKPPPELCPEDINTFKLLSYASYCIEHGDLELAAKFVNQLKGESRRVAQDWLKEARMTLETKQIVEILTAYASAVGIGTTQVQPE

B1: His-tagged CHCHD6 CΔ46 variant (protein)
chain: MGSTESSEGRRVSFGVDEEERVRVLQGVRLSENVVNRMKEPSSPPPAPTSSTFGLQDGNLRAPHKESTLPRSGSSGGQQPSGMKEGVKRYEQEHAAIQDKLFQVAKREREAATKHSKASLPTGEGSISHEEQKSVRLARELESREAELRRRDTFYKEQLERIERKNAEMYKLSSEQFHEAASKMESTIK
B2: GST-tagged Sam50 (natural protein, human, UniProt Q9Y512 1-469, looked up)
chain: T1 chain
notes: Sam50, human, full-length cDNA cloned into pGEX-6P-1; also called GST-Sam50; source: E. coli (BL21), purified (glutathione agarose)
B3: His-tagged full-length CHCHD6 (natural protein, human, UniProt Q9BRQ6 1-235, looked up)
chain: MGSTESSEGRRVSFGVDEEERVRVLQGVRLSENVVNRMKEPSSPPPAPTSSTFGLQDGNLRAPHKESTLPRSGSSGGQQPSGMKEGVKRYEQEHAAIQDKLFQVAKREREAATKHSKASLPTGEGSISHEEQKSVRLARELESREAELRRRDTFYKEQLERIERKNAEMYKLSSEQFHEAASKMESTIKPRRVEPVCSGLQAQILHCYRDRPHEVLLCSDLVKAYQRCVSAAHKG
notes: CHCHD6, human, full length, cloned into pET-28a; also called His-CHCHD6; source: E. coli (BL21), purified (Nickel-NTA agarose)
B4: His-tagged CHCHD6 NΔ15 variant (domain or fragment, human, UniProt Q9BRQ6 16-235, looked up)
chain: VDEEERVRVLQGVRLSENVVNRMKEPSSPPPAPTSSTFGLQDGNLRAPHKESTLPRSGSSGGQQPSGMKEGVKRYEQEHAAIQDKLFQVAKREREAATKHSKASLPTGEGSISHEEQKSVRLARELESREAELRRRDTFYKEQLERIERKNAEMYKLSSEQFHEAASKMESTIKPRRVEPVCSGLQAQILHCYRDRPHEVLLCSDLVKAYQRCVSAAHKG
notes: CHCHD6, human, deletion variant that lacks the N-terminal 15 amino acids; cloned into pET-28a; source: E. coli (BL21), purified (Nickel-NTA agarose); not shown: His tag, N-terminal, kept

Key:
[1] = target: T1, GST-tagged Sam50; experiment: GST pull-down
[2] = target: T2, His-tagged Mitofilin 123-758; experiment: pull-down; GST pull-down: 10 μg purified GST-tagged protein, 10 μg His-tagged protein and glutathione Sepharose 4B in 1 ml PBS with protease inhibitor, overnight at 4 °C, washed five times with cold PBS; Western blot; details: both partners purified
[3] = target: B2; experiment: as above; details: both partners purified

Row | Binder | binding result [1] | binding result [2] | binding result [3]
1 | B1 | no binding | – | –
2 | B2 | – | binds | –
3 | B3 | binds | – | binds
4 | B4 | binds | – | binds
